Test results: patent US20050175995A1 (UNIVERSITY OF UTAH RESEARCH FOUNDATION, published 2005)
Substitutions are numbered along the chain they refer to. Names may count otherwise.

Target: T1, wild-type (WT) Kir2.1 subunit (human, UniProt P63252 1-427)
T1 sequence: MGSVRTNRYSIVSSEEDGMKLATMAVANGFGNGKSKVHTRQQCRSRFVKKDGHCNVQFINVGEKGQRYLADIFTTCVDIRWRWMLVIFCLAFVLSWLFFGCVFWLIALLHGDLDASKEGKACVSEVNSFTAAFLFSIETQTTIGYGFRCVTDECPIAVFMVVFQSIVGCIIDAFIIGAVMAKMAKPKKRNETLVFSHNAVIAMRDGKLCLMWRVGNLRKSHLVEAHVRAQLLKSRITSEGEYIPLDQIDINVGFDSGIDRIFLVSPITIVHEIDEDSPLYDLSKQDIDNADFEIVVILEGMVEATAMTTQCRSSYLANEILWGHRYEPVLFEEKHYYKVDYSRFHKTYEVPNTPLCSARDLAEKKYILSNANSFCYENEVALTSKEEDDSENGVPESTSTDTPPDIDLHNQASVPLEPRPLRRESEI
Assay: cell-based or functional assay

Reduction in current on co-expression of WT and D71V subunits, relative to WT current: ~0.938 fraction of WT current
B1: D71V Kir2.1 mutant subunit (other)
chain: T1 sequence with D71V
